The assay has as its target T1, recombinant His-tagged wild-type SARS-CoV-2 Spike trimer (SARS-CoV-2, Wuhan-Hu-1 (wild-type), UniProt P0DTC2).
T1 construct: also called wild-type Spike trimer; wild-type Spike
In words: flow cytometry on cells; Cas1-CAR-NK92MI cells displaying the scFv-CAR incubated with recombinant His-tagged Spike trimer in PBS with 0.5 mM CaCl2 and 0.9 mM MgCl2, 1 hour at 4°C under gentle agitation; washed, stained with PE anti-His and Alexa Fluor 647 anti-human IgG (H+L); parental NK92MI as negative and 293T-hACE2 as positive control. The conditions noted are these: one partner purified.

B1: REGN10933 (casirivimab) single chain variable fragment displayed as a chimeric antigen receptor on NK92MI cells (scFv, V domains shown)
VH: QVQLVESGGGLVKPGGSLRLSCAASGFTFSDYYMSWIRQAPGKGLEWVSYITYSGSTIYYADSVKGRFTISRDNAKSSLYLQMNSLRAEDTAVYYCARDRGTTMVPFDYWGQGTLVTVSS
VL: DIQMTQSPSSLSASVGDRVTITCQASQDITNYLNWYQQKPGKAPKLLIYAASNLETGVPSRFSGSGSGTDFTFTISGLQPEDIATYYCQQYDNLPLTFGGGTKVEIK
notes: scFv domain of casirivimab (REGN10933); the variable domains are those of REGN10933 in PDB 6XDG; rest of the chimeric antigen receptor (hinge, transmembrane and signalling parts); also called Cas1-CAR; Cas1
Regarding B1, the binding result is given as “binds”.

For the origin of these results see publication PMC10371346, “Modeling of ACE2 and antibodies bound to SARS-CoV-2 provides insights into infectivity and immune evasion” (JCI Insight, 2023).
